We go through 2 proteins from patent US20020102534A1 (INSTITUT PASTEUR AND INSTITUT NATIONAL DE LA SANTE ET DE LA …, published 2002).

The data set deals with the molecule itself. The data set is described as follows: yeast two-hybrid bait-prey matrix (LacZ and HIS3 reporters).

B1: truncated HCV capsid protein C-delta-115 (other)
chain: MSTNPKPQRKTKRNTNRRPQDVKFPGGGQIVGGVYLLPRRGPRLGVRATRKTSERSQPRGRRQPIPKARRPEGRTWAQPGYPWPLYGNEGCGWAGWLLSPRGSRPSWGPTDPRRR
notes: also called CD115; CoreD115
Regarding B1, the binding result is “binds”.

B2: HCV core protein, full-length (capsid) (other)
chain: MSTNPKPQRKTKRNTNRRPQDVKFPGGGQIVGGVYLLPRRGPRLGVRATRKTSERSQPRGRRQPIPKARRPEGRTWAQPGYPWPLYGNEGCGWAGWLLSPRGSRPSWGPTDPRRRSRNLGKVIDTLTCGFADLMGYIPLVGAPLGGAARALAHGVRVLEDGVNYATGNLPGCSFSIFLLALLSCLTVPASA
notes: mature; also called capsid protein; p22
Turning to B2, the binding result is reported as “no binding”.
